Laboratory results reported in article PMC11398526.

Key:
[1] = biological target: steroid receptor coactivator 3 (SRC3), full-length, Strep II tagged (human) (UniProt Q9Y6Q9); assay: SEC-MALS
[2] = biological target: progesterone receptor isoform A (PR-A), full-length, Strep II tagged (human) (UniProt P06401); assay: SEC-MALS
Sequence of progesterone receptor isoform A (PR-A), full-length, Strep II tagged (human) (P06401 165-933): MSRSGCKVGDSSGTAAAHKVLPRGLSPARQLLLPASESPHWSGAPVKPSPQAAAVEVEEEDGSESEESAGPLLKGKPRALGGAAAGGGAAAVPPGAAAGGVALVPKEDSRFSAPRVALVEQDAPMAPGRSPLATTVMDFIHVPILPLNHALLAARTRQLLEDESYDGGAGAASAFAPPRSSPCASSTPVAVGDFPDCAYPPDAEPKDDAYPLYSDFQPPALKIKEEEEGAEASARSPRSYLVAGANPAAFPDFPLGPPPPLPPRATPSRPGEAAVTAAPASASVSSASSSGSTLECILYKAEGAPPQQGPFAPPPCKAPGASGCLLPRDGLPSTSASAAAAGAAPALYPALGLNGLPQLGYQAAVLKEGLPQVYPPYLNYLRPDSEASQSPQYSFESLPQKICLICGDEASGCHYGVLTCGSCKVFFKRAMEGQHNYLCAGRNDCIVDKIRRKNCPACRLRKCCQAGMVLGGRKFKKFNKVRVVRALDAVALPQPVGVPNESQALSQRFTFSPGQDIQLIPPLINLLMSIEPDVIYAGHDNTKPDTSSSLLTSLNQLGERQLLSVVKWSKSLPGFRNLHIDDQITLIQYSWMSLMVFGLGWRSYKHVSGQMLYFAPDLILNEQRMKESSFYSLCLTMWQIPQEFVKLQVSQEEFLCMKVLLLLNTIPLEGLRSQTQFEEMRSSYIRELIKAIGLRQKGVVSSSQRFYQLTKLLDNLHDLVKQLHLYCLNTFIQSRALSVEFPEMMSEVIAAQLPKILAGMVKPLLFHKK

Sequence of steroid receptor coactivator 3 (SRC3), full-length, Strep II tagged (human) (Q9Y6Q9 whole entry, canonical isoform): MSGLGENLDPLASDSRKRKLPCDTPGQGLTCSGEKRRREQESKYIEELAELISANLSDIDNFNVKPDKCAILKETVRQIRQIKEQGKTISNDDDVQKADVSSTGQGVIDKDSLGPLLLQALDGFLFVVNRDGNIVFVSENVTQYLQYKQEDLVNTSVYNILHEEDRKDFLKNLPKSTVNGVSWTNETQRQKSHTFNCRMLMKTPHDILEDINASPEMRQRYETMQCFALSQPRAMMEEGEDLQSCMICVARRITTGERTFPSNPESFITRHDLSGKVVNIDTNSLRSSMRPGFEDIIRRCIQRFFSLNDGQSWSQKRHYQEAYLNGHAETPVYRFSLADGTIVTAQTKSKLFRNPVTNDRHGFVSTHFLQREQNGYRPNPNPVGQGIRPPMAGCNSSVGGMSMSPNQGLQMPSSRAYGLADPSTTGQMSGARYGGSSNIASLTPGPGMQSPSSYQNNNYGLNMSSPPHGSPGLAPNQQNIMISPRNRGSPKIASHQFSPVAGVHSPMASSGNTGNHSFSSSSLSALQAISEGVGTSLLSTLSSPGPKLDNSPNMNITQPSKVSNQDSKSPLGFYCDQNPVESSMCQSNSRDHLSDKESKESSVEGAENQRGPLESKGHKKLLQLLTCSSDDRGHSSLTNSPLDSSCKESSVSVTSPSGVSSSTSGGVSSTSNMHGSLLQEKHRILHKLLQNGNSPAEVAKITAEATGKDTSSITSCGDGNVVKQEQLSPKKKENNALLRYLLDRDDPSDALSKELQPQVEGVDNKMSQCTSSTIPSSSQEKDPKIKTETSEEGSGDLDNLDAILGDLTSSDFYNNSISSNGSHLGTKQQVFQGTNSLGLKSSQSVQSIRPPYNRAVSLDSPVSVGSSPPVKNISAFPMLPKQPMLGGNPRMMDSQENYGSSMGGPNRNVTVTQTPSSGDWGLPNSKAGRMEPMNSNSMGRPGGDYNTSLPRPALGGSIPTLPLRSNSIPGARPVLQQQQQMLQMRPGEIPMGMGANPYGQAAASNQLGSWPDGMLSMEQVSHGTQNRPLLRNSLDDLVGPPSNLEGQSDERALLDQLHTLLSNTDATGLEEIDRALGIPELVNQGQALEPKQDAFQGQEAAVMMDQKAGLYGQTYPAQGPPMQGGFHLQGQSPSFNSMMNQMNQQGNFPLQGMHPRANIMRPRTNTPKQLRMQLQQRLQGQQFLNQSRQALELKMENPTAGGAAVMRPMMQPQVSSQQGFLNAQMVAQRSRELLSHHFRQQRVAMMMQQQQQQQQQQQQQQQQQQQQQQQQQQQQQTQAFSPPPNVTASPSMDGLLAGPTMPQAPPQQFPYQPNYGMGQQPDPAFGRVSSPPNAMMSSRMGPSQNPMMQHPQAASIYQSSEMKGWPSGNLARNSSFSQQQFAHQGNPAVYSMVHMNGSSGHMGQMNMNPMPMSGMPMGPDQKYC

Substance: histone acetyltransferase p300, full-length, Strep II tagged, Q09472 1-2414
- stoichiometry N (p300 per SRC3) [1]: 1
- stoichiometry N (p300 per PR-A) [2]: 0.5
